We go through eight molecules from patent publication US20210261648A1 (published 2021).

Assay [1] has as its target T1, FcγRIIa type H (human, UniProt P12318 34-217).
T1 construct: extracellular domain; also called FcγRIIaH; FcgRIIaH
T1 sequence (looked up): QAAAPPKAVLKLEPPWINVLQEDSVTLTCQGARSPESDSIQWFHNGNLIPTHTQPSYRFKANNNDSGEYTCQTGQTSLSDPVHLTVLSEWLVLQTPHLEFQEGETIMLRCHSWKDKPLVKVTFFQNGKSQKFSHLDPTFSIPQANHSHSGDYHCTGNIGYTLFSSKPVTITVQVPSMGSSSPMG
In words: SPR (Biacore), captured antibody, soluble FcγR.

Assay [2] has as its target T2, FcγRIa (human, UniProt P12314 16-292).
T2 construct: Whole entry named; also called FcgRIa; CD64A
In words: SPR (Biacore), captured antibody, soluble FcγR.

The target of assay [3] is T3, FcγRIIa type R (human, UniProt P12318 34-217).
T3 chain: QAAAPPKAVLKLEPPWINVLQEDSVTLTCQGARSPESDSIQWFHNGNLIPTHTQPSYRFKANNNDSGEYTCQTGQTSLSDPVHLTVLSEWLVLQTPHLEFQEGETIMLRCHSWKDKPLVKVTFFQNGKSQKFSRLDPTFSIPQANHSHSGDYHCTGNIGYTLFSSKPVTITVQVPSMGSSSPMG
In words: SPR (Biacore), captured antibody, soluble FcγR.

Assay [4] deals with T4, FcγRIIb (human, UniProt P31994 43-217).
T4 construct: extracellular domain; also called FcgRIIb; CD32B
T4 sequence (looked up): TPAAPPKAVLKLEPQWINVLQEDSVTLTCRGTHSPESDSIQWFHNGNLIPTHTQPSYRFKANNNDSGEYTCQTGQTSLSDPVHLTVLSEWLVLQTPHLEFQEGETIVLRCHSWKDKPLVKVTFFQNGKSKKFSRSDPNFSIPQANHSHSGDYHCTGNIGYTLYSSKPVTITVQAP
Description: SPR (Biacore), captured antibody, soluble FcγR.

Assay [5] has as its target T3, FcγRIIa type R. Description: SPR (Biacore); parent = IL6R-B3/IL6R-L.
The target of assay [6] is T4, FcγRIIb. Description: SPR (Biacore); parent = IL6R-B3/IL6R-L.

T2 sequence (P12314 16-292): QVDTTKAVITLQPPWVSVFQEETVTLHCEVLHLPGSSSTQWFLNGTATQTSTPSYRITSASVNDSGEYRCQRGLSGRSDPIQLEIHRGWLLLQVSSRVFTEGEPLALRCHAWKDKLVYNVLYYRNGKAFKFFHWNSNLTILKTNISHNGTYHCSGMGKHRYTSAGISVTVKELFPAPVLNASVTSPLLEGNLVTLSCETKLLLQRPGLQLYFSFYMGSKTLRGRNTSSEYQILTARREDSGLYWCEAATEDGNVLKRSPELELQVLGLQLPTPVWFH

B1: IL6R-BP497/IL6R-L (antibody, human IgG1, kappa)
heavy: QVQLQESGPGLVKPSETLSLTCAVSGHSISHDHAWSWVRQPPGEGLEWIGFISYSGITNYNPSLQGRVTISRDNSKNTLYLQMNSLRAEDTAVYYCARSLARTTAMDYWGEGTLVTVSSASTKGPSVFPLAPSSKSTSGGTAALGCLVKDYFPEPVTVSWNSGALTSGVHTFPAVLQSSGLYSLSSVVTVPSSSLGTQTYICNVNHKPSNTKVDKKVEPKSCDKTHTCPPCPAPDLLGDDSVFLFPPKPKDTLMISRTPEVTCVVIDVAEEDGEVKFNWYVDGVEVHNAKTKPREEQYNSTYRVVSVLTVLHQDWLNGKEYKCKVSNKGLPRPIEKTISKAKGQPREPQVYTLPPSRDELTKNQVSLTCLVKGFYPSDIAVEWESNGQPENNYKTTPPVLDSDGSFFLYSKLTVDKSRWQQGNVFSCSVMHEALHNHYTQESLSLSP
light: not shown
notes: Alterations in EU numbering, introduced into IL6R-B3
Consider B1, for which the Kd turned out to be 960 nM in assay [1], 2.1 nM in assay [2], 85 nM in assay [3] and 4.1 nM in assay [4]. Also, the “KD(IIaR) of the parent polypeptide/KD(IIaR) of the altered polypeptide” value (from here on “KD(IIaR)”) in assay [5] came to 12.9 fold. The “KD(IIb) of the parent polypeptide/KD(IIb) of the altered polypeptide” value (from here on “KD(IIb)”) in assay [6] was 764 fold.

B2: IL6R-BP533/IL6R-L (antibody, human IgG1, kappa)
heavy: QVQLQESGPGLVKPSETLSLTCAVSGHSISHDHAWSWVRQPPGEGLEWIGFISYSGITNYNPSLQGRVTISRDNSKNTLYLQMNSLRAEDTAVYYCARSLARTTAMDYWGEGTLVTVSSASTKGPSVFPLAPSSKSTSGGTAALGCLVKDYFPEPVTVSWNSGALTSGVHTFPAVLQSSGLYSLSSVVTVPSSSLGTQTYICNVNHKPSNTKVDKKVEPKSCDKTHTCPPCPAPDLLGDDSVFLFPPKPKDTLMISRTPEVTCVVIDVGEEDGEVKFNWYVDGVEVHNAKTKPREEQDNSTYRVVSVLTVLHQDWLNGKEYKCKVSNKALPRPIEKTISKAKGQPREPQVYTLPPSRDELTKNQVSLTCLVKGFYPSDIAVEWESNGQPENNYKTTPLVLDSDGSFFLYSKLTVDKSRWQQGNVFSCSVMHEALHNHYTQESLSLSP
light: not shown
notes: as for B1
Take B2: the Kd in assay [1] came to 2600 nM; in assay [2] it was 7.7 nM; in assay [3], 120 nM; in assay [4], 4.1 nM. Further, the “KD(IIaR)” value in assay [5] amounted to 9.2 fold. In assay [6], the “KD(IIb)” value was found to be 756 fold.

B3: IL6R-BP502/IL6R-L (antibody, human IgG1, kappa)
heavy: QVQLQESGPGLVKPSETLSLTCAVSGHSISHDHAWSWVRQPPGEGLEWIGFISYSGITNYNPSLQGRVTISRDNSKNTLYLQMNSLRAEDTAVYYCARSLARTTAMDYWGEGTLVTVSSASTKGPSVFPLAPSSKSTSGGTAALGCLVKDYFPEPVTVSWNSGALTSGVHTFPAVLQSSGLYSLSSVVTVPSSSLGTQTYICNVNHKPSNTKVDKKVEPKSCDKTHTCPPCPAPDLLGDDSVFLFPPKPKDTLMISRTPEVTCVVIDVAEEDGEVKFNWYVDGVEVHNAKTKPREEQDNSTYRVVSVLTVLHQDWLNGKEYKCKVSNKGLPRPIEKTISKAKGQPREPQVYTLPPSRDELTKNQVSLTCLVKGFYPSDIAVEWESNGQPENNYKTTPPVLDSDGSFFLYSKLTVDKSRWQQGNVFSCSVMHEALHNHYTQESLSLSP
light: not shown
notes: as for B1
As for B3, the Kd in assay [1] worked out at 1300 nM; in assay [2], 2.1 nM; in assay [3], 110 nM; in assay [4], 3.7 nM. In addition, the “KD(IIaR)” value in assay [5] was 10.1 fold. In assay [6], the “KD(IIb)” value amounted to 840 fold.

B4: IL6R-BP511/IL6R-L (antibody, human IgG1, kappa)
heavy: QVQLQESGPGLVKPSETLSLTCAVSGHSISHDHAWSWVRQPPGEGLEWIGFISYSGITNYNPSLQGRVTISRDNSKNTLYLQMNSLRAEDTAVYYCARSLARTTAMDYWGEGTLVTVSSASTKGPSVFPLAPSSKSTSGGTAALGCLVKDYFPEPVTVSWNSGALTSGVHTFPAVLQSSGLYSLSSVVTVPSSSLGTQTYICNVNHKPSNTKVDKKVEPKSCDKTHTCPPCPAPELLGDDSVFLFPPKPKDTLMISRTPEVTCVVIDVAEEDGPVKFNWYVDGVEVHNAKTKPREEQDNSTYRVVSVLTVLHQDWLNGKEYKCKVSNKALPRPIEKTISKAKGQPREPQVYTLPPSRDELTKNQVSLTCLVKGFYPSDIAVEWESNGQPENNYKTTPPVLDSDGSFFLYSKLTVDKSRWQQGNVFSCSVMHEALHNHYTQESLSLSP
light: not shown
notes: as for B1
For B4, the Kd in assay [1] was 4300 nM; in assay [2], 6 nM; in assay [3], 180 nM; in assay [4] it was 3.5 nM. The “KD(IIaR)” value in assay [5] came to 6.3 fold. Besides, the “KD(IIb)” value in assay [6] was found to be 891 fold.

B5: IL6R-BP498/IL6R-L (antibody, human IgG1, kappa)
heavy: QVQLQESGPGLVKPSETLSLTCAVSGHSISHDHAWSWVRQPPGEGLEWIGFISYSGITNYNPSLQGRVTISRDNSKNTLYLQMNSLRAEDTAVYYCARSLARTTAMDYWGEGTLVTVSSASTKGPSVFPLAPSSKSTSGGTAALGCLVKDYFPEPVTVSWNSGALTSGVHTFPAVLQSSGLYSLSSVVTVPSSSLGTQTYICNVNHKPSNTKVDKKVEPKSCDKTHTCPPCPAPDLLGDDSVFLFPPKPKDTLMISRTPEVTCVVIDVAEEDGEVKFNWYVDGVEVHNAKTKPREEQYNSTYRVVSVLTVLHQDWLNGKEYKCKVSNKALPRPIEKTISKAKGQPREPQVYTLPPSRDELTKNQVSLTCLVKGFYPSDIAVEWESNGQPENNYKTTPLVLDSDGSFFLYSKLTVDKSRWQQGNVFSCSVMHEALHNHYTQESLSLSP
light: not shown
notes: as for B1
In the case of B5, the dissociation constant (Kd) in assay [1] amounted to 930 nM; in assay [2] it was 1.3 nM; in assay [3], 51 nM; in assay [4], 1.7 nM. Besides, the “KD(IIaR)” value in assay [5] amounted to 21.7 fold. For the same molecule, the “KD(IIb)” value in assay [6] came out at 1880 fold.

B6: IL6R-BP510/IL6R-L (antibody, human IgG1, kappa)
heavy: QVQLQESGPGLVKPSETLSLTCAVSGHSISHDHAWSWVRQPPGEGLEWIGFISYSGITNYNPSLQGRVTISRDNSKNTLYLQMNSLRAEDTAVYYCARSLARTTAMDYWGEGTLVTVSSASTKGPSVFPLAPSSKSTSGGTAALGCLVKDYFPEPVTVSWNSGALTSGVHTFPAVLQSSGLYSLSSVVTVPSSSLGTQTYICNVNHKPSNTKVDKKVEPKSCDKTHTCPPCPAPELLGDDSVFLFPPKPKDTLMISRTPEVTCVVIDVAEEDGPVKFNWYVDGVEVHNAKTKPREEQYNSTYRVVSVLTVLHQDWLNGKEYKCKVSNKALPRPIEKTISKAKGQPREPQVYTLPPSRDELTKNQVSLTCLVKGFYPSDIAVEWESNGQPENNYKTTPPVLDSDGSFFLYSKLTVDKSRWQQGNVFSCSVMHEALHNHYTQESLSLSP
light: not shown
notes: as for B1
Consider B6, for which the Kd in assay [1] turned out to be 4000 nM; in assay [2] it was 6 nM; in assay [3], 170 nM; in assay [4] it was 3.8 nM. Also, the “KD(IIaR)” value in assay [5] is 6.6 fold. Besides, the “KD(IIb)” value in assay [6] stood at 807 fold.

B7: IL6R-BP499/IL6R-L (antibody, human IgG1, kappa)
heavy: QVQLQESGPGLVKPSETLSLTCAVSGHSISHDHAWSWVRQPPGEGLEWIGFISYSGITNYNPSLQGRVTISRDNSKNTLYLQMNSLRAEDTAVYYCARSLARTTAMDYWGEGTLVTVSSASTKGPSVFPLAPSSKSTSGGTAALGCLVKDYFPEPVTVSWNSGALTSGVHTFPAVLQSSGLYSLSSVVTVPSSSLGTQTYICNVNHKPSNTKVDKKVEPKSCDKTHTCPPCPAPDLLGDDSVFLFPPKPKDTLMISRTPEVTCVVIDVAEEDGEVKFNWYVDGVEVHNAKTKPREEQDNSTYRVVSVLTVLHQDWLNGKEYKCKVSNKALPRPIEKTISKAKGQPREPQVYTLPPSRDELTKNQVSLTCLVKGFYPSDIAVEWESNGQPENNYKTTPLVLDSDGSFFLYSKLTVDKSRWQQGNVFSCSVMHEALHNHYTQESLSLSP
light: not shown
notes: as for B1
On to B7, for which the Kd is 1000 nM in assay [1], 1.2 nM in assay [2], 49 nM in assay [3] and 1.5 nM in assay [4]. Further, the “KD(IIaR)” value in assay [5] worked out at 22.3 fold. The “KD(IIb)” value in assay [6] was found to be 2120 fold.

B8: IL6R-BP503/IL6R-L (antibody, human IgG1, kappa)
heavy: QVQLQESGPGLVKPSETLSLTCAVSGHSISHDHAWSWVRQPPGEGLEWIGFISYSGITNYNPSLQGRVTISRDNSKNTLYLQMNSLRAEDTAVYYCARSLARTTAMDYWGEGTLVTVSSASTKGPSVFPLAPSSKSTSGGTAALGCLVKDYFPEPVTVSWNSGALTSGVHTFPAVLQSSGLYSLSSVVTVPSSSLGTQTYICNVNHKPSNTKVDKKVEPKSCDKTHTCPPCPAPDLLGDDSVFLFPPKPKDTLMISRTPEVTCVVIDVAEEDGEVKFNWYVDGVEVHNAKTKPREEQDNSTYRVVSVLTVLHQDWLNGKEYKCKVSNKGLPRPIEKTISKAKGQPREPQVYTLPPSRDELTKNQVSLTCLVKGFYPSDIAVEWESNGQPENNYKTTPMVLDSDGSFFLYSKLTVDKSRWQQGNVFSCSVMHEALHNHYTQESLSLSP
light: not shown
notes: as for B1
On to B8, for which the Kd in assay [1] worked out at 860 nM; in assay [2], 1.2 nM; in assay [3] it was 57 nM; in assay [4], 1.7 nM. The “KD(IIaR)” value in assay [5] worked out at 19.4 fold. The “KD(IIb)” value in assay [6] stood at 1810 fold.
